Drawing on publication PMC3332082, this text covers Kd, reduction in deoxyHb binding against wild type and affinity for deoxyHb, percent of normal for 1 substance.

The target of assay [1] is murine cdb3-GFP, substitution of residues 25-31 (negative residues introduced) (mouse) (UniProt P04919). In words: other fluorescence titration.
The target of assay [2] is murine cdb3-GFP, deletion of residues 19-23 (mouse) (UniProt P04919). In words: FRET or BRET.
In assay [3] the target is murine cdb3-GFP, substitution of residues 19-23 (acidic residues to amides) (mouse) (UniProt P04919). In words: FRET or BRET.
The target of assay [4] is murine cdb3-GFP, substitution of residues 12-23 (all 7 acidic residues to amides) (mouse) (UniProt P04919). In words: FRET or BRET. (In general: In BRET a luciferase serves as donor, and the signal depends on an acceptor being close.)

The term Kd denotes the constant that tells how readily two partners part at equilibrium. Low readings indicate higher affinity, high ones lower affinity. Regarding “murine hemoglobin (from erythrocytes of C57BL/6J mice) (from UniProt P01942 1-142; P02088 1-147) (complex)”, the equilibrium dissociation constant (Kd) in assay [1] was found to be 390 nM. Moreover, the reduction in deoxyHb binding against wild type in assay [2] and in assay [3] was 60% each time. The same substance gave an affinity for deoxyHb, percent of normal in assay [4] of 15%.
